Ends that are not written are not given here.
T1: corticotropin releasing factor 2 receptor
T1 sequence (Q13324 whole entry, species assumed, looked up): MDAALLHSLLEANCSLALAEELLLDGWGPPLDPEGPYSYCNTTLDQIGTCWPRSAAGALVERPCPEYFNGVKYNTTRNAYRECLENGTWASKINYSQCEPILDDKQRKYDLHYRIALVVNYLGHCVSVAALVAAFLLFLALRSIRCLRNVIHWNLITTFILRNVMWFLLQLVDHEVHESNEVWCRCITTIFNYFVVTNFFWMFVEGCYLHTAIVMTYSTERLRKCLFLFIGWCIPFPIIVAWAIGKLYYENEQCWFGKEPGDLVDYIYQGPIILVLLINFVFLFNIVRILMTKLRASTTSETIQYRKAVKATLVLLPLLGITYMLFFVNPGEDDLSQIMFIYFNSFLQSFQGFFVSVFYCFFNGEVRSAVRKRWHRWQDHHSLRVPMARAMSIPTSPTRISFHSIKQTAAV


Assays:
[1] = molecular target: T1, corticotropin releasing factor 2 …; assay: cell-based or functional assay
[2] = molecular target: corticotropin releasing factor 1 receptor; assay: cell-based or functional assay
Wherever CRF1R Emax is given: reference of the scale not given here.
Wherever CRF2R Emax is given: reference of the scale not given here.

CRF2R EC50 [1] | CRF2R Emax [1] | CRF1R EC50 [2] | CRF1R Emax [2] | Binder
4.47 nM | 99% | > 100 nM | 9% | IVLSLDVPIGLLQILLEQEKQEAAREQATTNARILARV-NH2 [SEQ ID NO 125]
> 100 nM | 19% | > 100 nM | 7% | IVLSLDVPIGLLQILLEQAAAAREQATTNARILARV-NH2 [SEQ ID NO 134]
36.9 nM | 100% | > 100 nM | 4% | IVLSLDVPIGLLQILLEQRARAAREQATTNARILARV-NH2 [SEQ ID NO 137]
8.57 nM | 92% | > 100 nM | 9% | IVLSLDVPIGLLQILLEQARADAAREQATTNARILARV-NH2 [SEQ ID NO 130]
23.4 nM | 68% | > 100 nM | 8% | IVLSLDVPIGLLQILLEQRAAREQATTNARILARV-NH2 [SEQ ID NO 136]
12.2 nM | 88% | > 100 nM | 4% | IVLSLDVPIGLLQILLEQRRAAREQATTNARILARV-NH2 [SEQ ID NO 133]
3.83 nM |  | > 100 nM |  | IVLSLDVPIGLLQILLEQTKARAAREQATTNARILARV-NH2 [SEQ ID NO 129]
59 nM | 46% | > 100 nM | 5% | IVLSLDVPIGLLQILLEQAAREQATTNARILARV-NH2 [SEQ ID NO 138]
7.53 nM | 88% | > 100 nM | 8% | IVLSLDVPIGLLQILLEQEKEKKRKETNARILARV-NH2 [SEQ ID NO 132]
5.25 nM | 91% | > 100 nM | 8% | IVLSLDVPIGLLQILLEQAKADAAREQATTNARILARV-NH2 [SEQ ID NO 131]
13 nM | 91% | > 100 nM | 7% | IVLSLDVPIGLLQILLEQTRADAAREQATTNARILARV-NH2 [SEQ ID NO 126]
> 100 nM | 76% | > 100 nM | 6% | IVLSLDVPIGLLQILLEQAARAAREQATTNARILARV-NH2 [SEQ ID NO 135]
7.79 nM |  | > 100 nM |  | IVLSLDVPIGLLQILLEQAKARAAREQATTNARILARV-NH2 [SEQ ID NO 127]
2.85 nM | 98% | > 100 nM | 8% | IVLSLDVPIGLLQILLEQTRARAAREQATTNARILARV-NH2 [SEQ ID NO 128]

Further lines, the binder ahead of its results:

Binder | CRF2R EC50 [1] | CRF2R Emax [1] | CRF1R EC50 [2] | CRF1R Emax [2]
ZGPPISIDLPFQLLRKMIEIEKQEKEKQQATNNRLLLATV (C-terminal amide) [SEQ ID NO 12] | 9.72 nM | 91% | 928 nM | 73%
ZGPPISIDLPFQLLRKMIEIEKQEKEKQQATTNRLLLDTI (C-terminal amide) [SEQ ID NO 13] | 3.88 nM | 79% | 97.7 nM | 69%
ZGPPISIDLPFQLLRKMIEIEKQEKEKQQATNNRLLLDTI (C-terminal amide) [SEQ ID NO 14] | 6.33 nM | 90% | 109 nM | 92%
IVLSLDVPIGLLQILLEQAKQEAAREQATTNARILARV-NH2 [SEQ ID NO 124] | 3.49 nM | 94% | > 100 nM | 6%
IVLSLDVPIGLLQILLEQERAEAAREQATTNARILARV-NH2 [SEQ ID NO 113] | 11.3 nM | 98% | > 100 nM | 4%
IVLSLDVPIGLLQILLEQERARAAREQATTNARILARV-NH2 [SEQ ID NO 119] | 3.57 nM | 95% | > 100 nM | 3%
IVLSLDVPIGLLQILLEQEKQRAAREQATTNARILARV-NH2 [SEQ ID NO 115] | 13.6 nM | 98% | > 100 nM | 7%
IVLSLDVPIGLLQILLEQTKARAAREQATTNARILARV-NH2 [SEQ ID NO 117] | 9.41 nM |  | 100 nM | 
IVLSLDVPIGLLQILLEQERQEAAREQATTNARILARV-NH2 [SEQ ID NO 118] | 14.6 nM | 100% | > 100 nM | 5%
SQEPPISLDLPTYLLREVLEMTKADQLAQQAHSNRKLLDIA-NH2 [SEQ ID NO 106] | 100 nM | 6.1% | 100 nM | 4.8%
IVLSLDVPIGLLQILLEQTKANAAREQATTVARILARV-NH2 [SEQ ID NO 116] | 100 nM | 26.4% | 100 nM | 4.8%
SQEPPISLDLPTQLLREVLEMTKADQLAQQAHSNRKLLDIA-NH2 [SEQ ID NO 105] | 100 nM | 9.15% | 100 nM | 5.2%
IVLSLDVPIGLLQILLEQAKARAAREQATTNARILARV-NH2 [SEQ ID NO 109] | 11.8 nM |  | 100 nM | 
IVLSLDVPIGLLQILLEQTKADAAREQATTNARILARV-NH2 [SEQ ID NO 108] | 79 nM | 97% | > 100 nM | 3%
IVLSLDVPIGLLQILLEQARQEAAREQATTNARILARV-NH2 [SEQ ID NO 123] | 3.49 nM | 93.8% | > 1000 nM | 9.6%
IVLSLEVPIGLLQILLEQARARAAREQATTNARILARV-NH2 [SEQ ID NO 120] | 69.9 nM | 100% | 100 nM | 7%
IVLSLDVPIGLLQILLEQARQRAAREQATTNARILARV-NH2 [SEQ ID NO 114] | 3.42 nM | 100% | > 100 nM | 6%
IVLSLDVPIGLLQILLEQAKAEAAREQATTNARILARV-NH2 [SEQ ID NO 112] | 12.3 nM | 100% | > 100 nM | 10%
IVLSLDVPIGLLQILLEQAKQRAAREQATTNARILARV-NH2 [SEQ ID NO 110] | 11 nM | 100% | > 100 nM | 9%
SQEPPISLDLPFHLLREVLEMTKADQLAQQAHSNRKLLDIA-NH2 [SEQ ID NO 104] | 100 nM | 4.5% | 100 nM | 11.1%
IVLSLDVPIGLLQILLEQERQRAAREQATTNARILARV-NH2 [SEQ ID NO 111] | 10.9 nM | 99% | > 100 nM | 9%
IVLSLDVPIGLLQILLEQARARAAREQATTQARILARV-NH2 [SEQ ID NO 9] | 100 nM | 34% | 100 nM | 10%
IVLSLDVPIGLLQILLEQARAEAAREQATTNARILARV-NH2 [SEQ ID NO 122] | 3.31 nM | 97% | 1000 nM | 10.7%
